# Experimental data: patent US20150191730A1, “APTAMER-TARGETTED ANTIGEN DELIVERY” (ALBERT EINSTEIN COLLEGE OF MEDICINE OF YESHIVA UNIVERSITY, published 2015)
# Columns and labels:
# [1] = target: mouse DEC205 (mouse) (UniProt Q60767); experiment: cell-based or functional assay
# [2] = target: DEC205 (CD205, LY75), mouse, surface-expressed (Mus musculus, UniProt Q60767 Q60767:28-1723); experiment: flow; apparent; A20.Kb/mDEC205 cells; RPMI + 1 mg/mL ssDNA, 37 C, 15 min; one-site fit; settings: tags: full-length, stably expressed on CHO (CHO/mDEC205) or A20.Kb/mDEC205 cells; label: Alexa Fluor 488 (5'); Mfold-predicted stem-loop with conserved UUCAUAA
# Chain of DEC205 (CD205, LY75), mouse, surface-expressed (Q60767 28-1723, one chain of several): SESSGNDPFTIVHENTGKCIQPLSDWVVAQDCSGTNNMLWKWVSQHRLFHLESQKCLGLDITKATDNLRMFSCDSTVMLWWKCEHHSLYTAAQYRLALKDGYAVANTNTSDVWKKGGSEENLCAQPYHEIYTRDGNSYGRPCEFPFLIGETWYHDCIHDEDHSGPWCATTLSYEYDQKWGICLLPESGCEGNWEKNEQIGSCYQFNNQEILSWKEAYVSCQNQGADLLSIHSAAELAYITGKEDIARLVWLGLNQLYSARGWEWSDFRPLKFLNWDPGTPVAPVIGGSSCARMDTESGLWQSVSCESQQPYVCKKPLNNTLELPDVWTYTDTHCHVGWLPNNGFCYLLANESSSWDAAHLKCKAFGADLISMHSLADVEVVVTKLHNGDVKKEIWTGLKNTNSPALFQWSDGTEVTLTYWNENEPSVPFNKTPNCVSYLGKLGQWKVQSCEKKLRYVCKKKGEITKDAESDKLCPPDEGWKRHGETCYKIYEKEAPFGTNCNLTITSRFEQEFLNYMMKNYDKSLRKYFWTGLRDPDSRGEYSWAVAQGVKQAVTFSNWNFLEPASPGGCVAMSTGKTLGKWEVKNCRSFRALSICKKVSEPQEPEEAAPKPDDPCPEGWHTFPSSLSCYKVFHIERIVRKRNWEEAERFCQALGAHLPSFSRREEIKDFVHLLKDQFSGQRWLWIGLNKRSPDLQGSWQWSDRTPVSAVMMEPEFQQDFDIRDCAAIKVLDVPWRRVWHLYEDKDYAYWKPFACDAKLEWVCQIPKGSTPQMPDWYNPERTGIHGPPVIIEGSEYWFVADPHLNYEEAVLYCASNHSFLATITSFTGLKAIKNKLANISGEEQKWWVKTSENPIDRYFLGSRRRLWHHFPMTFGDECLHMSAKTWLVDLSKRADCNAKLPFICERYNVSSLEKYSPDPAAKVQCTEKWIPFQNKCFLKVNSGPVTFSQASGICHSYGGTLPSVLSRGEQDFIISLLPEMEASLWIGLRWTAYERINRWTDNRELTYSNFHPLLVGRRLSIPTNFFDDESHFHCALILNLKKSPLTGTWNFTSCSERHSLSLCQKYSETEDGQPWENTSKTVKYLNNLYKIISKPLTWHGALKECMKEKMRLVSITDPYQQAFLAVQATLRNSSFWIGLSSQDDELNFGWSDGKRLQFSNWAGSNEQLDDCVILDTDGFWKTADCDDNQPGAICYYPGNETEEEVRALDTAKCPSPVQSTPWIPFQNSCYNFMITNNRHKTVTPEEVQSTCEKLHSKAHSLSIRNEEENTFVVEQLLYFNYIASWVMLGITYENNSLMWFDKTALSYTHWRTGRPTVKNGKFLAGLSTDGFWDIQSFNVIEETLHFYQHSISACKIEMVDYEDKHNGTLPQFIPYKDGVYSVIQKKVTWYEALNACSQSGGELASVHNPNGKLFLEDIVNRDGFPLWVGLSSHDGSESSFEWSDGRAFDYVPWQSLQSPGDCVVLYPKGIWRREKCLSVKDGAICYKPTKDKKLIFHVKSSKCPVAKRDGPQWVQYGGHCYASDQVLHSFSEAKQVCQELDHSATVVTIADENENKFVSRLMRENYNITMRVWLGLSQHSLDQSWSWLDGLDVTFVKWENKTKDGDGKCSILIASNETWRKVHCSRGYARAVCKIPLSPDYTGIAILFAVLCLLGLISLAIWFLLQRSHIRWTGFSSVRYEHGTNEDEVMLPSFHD
# Procedure: The minimized aptamer, min.2 (FIG. 3a), was chemically synthesized bearing a 3′ inverted dT for added serum stability and a 5′ thiol to facilitate subsequent chemical conjugations. When labeled with Alexa Fluor 488, this chemically synthesized aptamer performed as well as constructs produced by transcription (data not shown). Direct labeling of min.2 also allowed us to measure the apparent dissociation constant of this aptamer for cell-surface mDEC205 on A20 cells (23±6 nM; FIG. 3b). The specificity of Clone 1 and high affinity of its minimized form, min.2, constitute a promising basis for using this aptamer for targeted antigen delivery.
# mDEC205 Cell Surface Binding Assay: A20.Kb cells or A20.Kb.mDEC205 cells which are engineered to express higher amounts of mDEC205 were washed with RPMI, resuspended at 1×10⁵ cells in 100 μL RPMI supplemented with 1 mg/mL ssDNA, and stored on ice while Alexa Fluor 488-conjugated min.2 and Alexa Fluor 488-conjugated cntrl.36 were prepared as described previously. After addition of refolded RNA to cells, the RNA-cell mixture was incubated for 15 minutes at 37° C., washed with and resuspended in flow cytometry buffer, and analyzed by flow cytometry. […]
# Chain of mouse DEC205 (mouse) (Q60767 28-1723): as the sequence (Q60767 28-1723, one chain of several) above
OT-I cell proliferation (CFSE dilution) after two days with antigen-treated CD11c+ splenocytes [1],Molecule,Kd [2]
> 80%,"NLDC145:OVA, recombinant fusion of OVA and anti-mDEC205 antibody clone NLDC145",
,"GGGAGGUGUGUUAGCACACGAUUCAUAAUCAGCUACCCUCCC (ssRNA, 2'-F pyrimidines; 3' idT; 5' thiol C6) [min.2]",23 nM
